The target of this experiment is T1, Mis18α:Mis18β complex (insect-cell-expressed) (human, UniProt Q9NYP9 1-233; O43482 1-229).
T1 construct: Mis18α, human, the CDS of Mis18α; codon-optimized cDNA (GeneArt); Mis18β, human, the CDS of Mis18β; pre-formed complex used as one partner in pull-downs and reconstitution; also called Mis18α:Mis18β hexamer; source: Tnao38 insect cells, baculovirus co-expression, purified (Ni resin, His-TEVp cleavage, SEC); not shown: His6, N-terminal, cleaved; copies: 4 + 2
T1 sequence (Q9NYP9 whole entry, chain 1 of 2): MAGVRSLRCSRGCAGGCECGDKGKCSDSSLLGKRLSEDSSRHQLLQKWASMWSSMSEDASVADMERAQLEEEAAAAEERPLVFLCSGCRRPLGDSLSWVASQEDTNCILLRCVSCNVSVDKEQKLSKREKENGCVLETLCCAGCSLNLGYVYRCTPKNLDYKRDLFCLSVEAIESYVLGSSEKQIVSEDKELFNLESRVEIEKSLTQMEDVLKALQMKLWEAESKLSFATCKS
T1 sequence (O43482 whole entry, chain 2 of 2): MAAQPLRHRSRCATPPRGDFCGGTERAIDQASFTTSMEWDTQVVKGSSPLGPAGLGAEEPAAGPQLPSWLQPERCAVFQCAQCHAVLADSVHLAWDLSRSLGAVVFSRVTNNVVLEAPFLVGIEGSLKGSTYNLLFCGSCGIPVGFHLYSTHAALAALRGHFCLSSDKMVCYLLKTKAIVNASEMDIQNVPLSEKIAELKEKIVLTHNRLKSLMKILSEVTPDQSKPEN
The experiment in a line: pull-down; MBP-tagged M18BP1 variant held on amylose resin, Mis18α:Mis18β in solution; proteins 3 μM, buffer HST300 (30 mM HEPES pH 7.5, 300 mM NaCl, 1 mM TCEP), 4°C, 30 min; CBB-stained Tricine–SDS-PAGE. Conditions: both partners purified.

B1: MBP-M18BP1^61–140/S110A-8His (domain or fragment, human, UniProt Q6P0N0 61-140, looked up)
chain: NQFLKMTTFNNKNIFQSTMLTEATTSNSSLDISAIKPNKDGLKNKANYEAPGKIFLRMKEKVLRDKQEQPSRNSSLLEPQ
notes: M18BP1 (KNL2), human, residues 61-140; also tested after CDK1:Cyclin B1 treatment; Ser110 is the only major site of 61-140, so no separate molecule was made; source: E. coli BL21-CodonPlus(DE3)-RIL, purified (Ni resin); not shown: MBP, N-terminal, kept; His8, C-terminal, kept
Take B1: the binding result is reported as “binds”.

For the origin of these results see paper PMC5245964 (eLife, 2017).
